The results in this text go back to article PMC2699393 (EMBO Reports, 2009).

The target in the test is T1, MBP–TIP150 (maltose-binding protein–tracking protein 150) (human, UniProt Q5JR59 1-1369).
T1 sequence (looked up): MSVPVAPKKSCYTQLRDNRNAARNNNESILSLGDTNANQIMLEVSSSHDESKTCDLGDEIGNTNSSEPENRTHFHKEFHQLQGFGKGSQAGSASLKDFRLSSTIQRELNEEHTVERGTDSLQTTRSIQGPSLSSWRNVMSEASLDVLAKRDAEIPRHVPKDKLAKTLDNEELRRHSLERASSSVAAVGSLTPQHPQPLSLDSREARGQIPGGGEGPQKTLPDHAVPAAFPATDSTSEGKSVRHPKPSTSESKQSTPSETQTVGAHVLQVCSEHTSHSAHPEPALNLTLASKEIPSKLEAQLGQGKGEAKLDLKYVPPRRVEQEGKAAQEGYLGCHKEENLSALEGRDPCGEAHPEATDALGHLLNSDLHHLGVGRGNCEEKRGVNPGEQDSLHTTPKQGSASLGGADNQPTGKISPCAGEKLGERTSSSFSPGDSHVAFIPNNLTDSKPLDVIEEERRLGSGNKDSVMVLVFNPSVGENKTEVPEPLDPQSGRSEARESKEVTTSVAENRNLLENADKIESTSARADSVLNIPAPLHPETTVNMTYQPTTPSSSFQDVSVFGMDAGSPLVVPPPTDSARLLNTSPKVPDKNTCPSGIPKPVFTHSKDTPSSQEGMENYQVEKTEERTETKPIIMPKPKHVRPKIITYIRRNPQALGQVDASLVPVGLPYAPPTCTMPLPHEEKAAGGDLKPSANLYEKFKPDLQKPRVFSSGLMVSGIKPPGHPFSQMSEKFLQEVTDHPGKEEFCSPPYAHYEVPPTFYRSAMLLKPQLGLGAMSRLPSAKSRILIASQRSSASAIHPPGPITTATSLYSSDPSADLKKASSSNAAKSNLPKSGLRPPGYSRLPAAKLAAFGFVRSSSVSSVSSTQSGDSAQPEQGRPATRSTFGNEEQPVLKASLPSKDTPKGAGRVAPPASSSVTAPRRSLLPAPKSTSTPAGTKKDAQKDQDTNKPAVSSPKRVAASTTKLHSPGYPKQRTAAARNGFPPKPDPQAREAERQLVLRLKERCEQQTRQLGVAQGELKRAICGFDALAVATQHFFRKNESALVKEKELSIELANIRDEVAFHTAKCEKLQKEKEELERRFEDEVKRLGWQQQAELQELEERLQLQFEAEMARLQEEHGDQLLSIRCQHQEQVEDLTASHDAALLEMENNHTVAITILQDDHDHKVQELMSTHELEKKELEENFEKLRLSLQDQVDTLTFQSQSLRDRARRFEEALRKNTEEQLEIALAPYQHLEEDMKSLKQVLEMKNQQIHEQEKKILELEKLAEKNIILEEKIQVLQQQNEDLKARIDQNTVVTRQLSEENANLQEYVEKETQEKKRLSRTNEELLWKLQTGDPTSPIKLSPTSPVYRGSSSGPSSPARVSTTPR
The experiment in a line: pull-down.

B1: GST–EB1 (glutathione-S-transferase–end-binding protein 1) (natural protein, human, UniProt Q15691 1-268, looked up)
chain: MAVNVYSTSVTSDNLSRHDMLAWINESLQLNLTKIEQLCSGAAYCQFMDMLFPGSIALKKVKFQAKLEHEYIQNFKILQAGFKRMGVDKIIPVDKLVKGKFQDNFEFVQWFKKFFDANYDGKDYDPVAARQGQETAVAPSLVAPALNKPKKPLTSSSAAPQRPISTQRTAAAPKAGPGVVRKNPGVGNGDDEAAELMQQVNVLKLTVEDLEKERDFYFGKLRNIELICQENEGENDPVLQRIVDILYATDEGFVIPDEGGPQEEQEEY
Take B1: the binding result is “binds”.
